Measured values taken from publication PMC6056640, “Ghrelin Through GHSR1a and OX1R Heterodimers Reveals a Gαs–cAMP-cAMP Response Element Binding Protein Signaling Pathway in Vitro” (Frontiers in Molecular Neuroscience, 2018).

Biological target: T1, OX1R-Rluc (human, UniProt O43613 1-425)
T1 construct: Orexin type 1 receptor (OX1R), human cDNA (pcDNA3.1-OX1R, cDNA Resource Centre); construct made 'as described'; BRET donor; also called orexin type 1 receptor; Orexin 1 receptor; source: HEK293, transiently transfected, in living cells; not shown: Rluc, C-terminal, kept
T1 sequence (looked up): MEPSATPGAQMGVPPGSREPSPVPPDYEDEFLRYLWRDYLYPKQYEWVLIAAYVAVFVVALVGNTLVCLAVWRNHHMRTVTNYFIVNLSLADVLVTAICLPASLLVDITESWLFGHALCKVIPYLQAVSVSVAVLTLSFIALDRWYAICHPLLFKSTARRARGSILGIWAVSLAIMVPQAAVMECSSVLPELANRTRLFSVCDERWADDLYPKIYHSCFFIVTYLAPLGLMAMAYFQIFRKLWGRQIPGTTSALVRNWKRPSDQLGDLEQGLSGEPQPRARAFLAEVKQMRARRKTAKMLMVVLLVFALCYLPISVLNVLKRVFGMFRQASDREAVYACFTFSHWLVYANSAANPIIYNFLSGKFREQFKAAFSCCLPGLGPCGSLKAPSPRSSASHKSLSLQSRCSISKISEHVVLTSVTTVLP
Assay: FRET or BRET; BRET in living HEK293 cells; donor (Rluc fusion) and acceptor (EYFP fusion) plasmids 1:3; coelenterazine h 5 μM; also after ghrelin (100 nM) and/or orexin-A (100 nM) or vehicle for 10 min
Conditions: partners not purified

mBRET ratio: 190
B1: GHSR1a-EYFP (receptor, UniProt Q92847 1-366, looked up)
chain: MWNATPSEEPGFNLTLADLDWDASPGNDSLGDELLQLFPAPLLAGVTATCVALFVVGIAGNLLTMLVVSRFRELRTTTNLYLSSMAFSDLLIFLCMPLDLVRLWQYRPWNFGDLLCKLFQFVSESCTYATVLTITALSVERYFAICFPLRAKVVVTKGRVKLVIFVIWAVAFCSAGPIFVLVGVEHENGTDPWDTNECRPTEFAVRSGLLTVMVWVSSIFFFLPVFCLTVLYSLIGRKLWRRRRGDAVVGASLRDQNHKQTVKMLAVVVFAFILCWLPFHVGRYLFSKSFEPGSLEIAQISQYCNLVSFVLFYLSAAINPILYNIMSKKYRVAVFRLLGFEPFSQRKLSTLKDESSRAWTESSINT
notes: Growth hormone secretagogue receptor 1α (GHSR1a); ORF inserted into the EYFP-N1 vector; cDNA from pcDNA3.1-GHSR1a (cDNA Resource Centre); BRET and FRET acceptor; The FRET methods call it EYFP-GHSR1a, but the construction paragraph puts EYFP on the C-terminus; also called growth hormone secretagogue receptor 1α; EYFP-GHSR1a; source: HEK293, transiently transfected, in living cells; not shown: …
